B1: Glycosylphosphatidylinositol-anchored high density lipoprotein-binding protein 1 (Homo sapiens), Q8IV16 (parent)
chain: MKALGAVLLALLLFGRPGRGQTQQEEEEEDEDHGPDDYDEEDEDEVEEEETNRLPGGRSRVLLRCYTCKSLPRDERCNLTQNCSHGQTCTTLIAHGNTESGLLTTHSTWCTDSCQPITKTVEGTQVTMTCCQSSLCNVPPWQSSRVQDPTGKGAGGPRGSSETVGAALLLNLLAGLGAMGARRP
partner: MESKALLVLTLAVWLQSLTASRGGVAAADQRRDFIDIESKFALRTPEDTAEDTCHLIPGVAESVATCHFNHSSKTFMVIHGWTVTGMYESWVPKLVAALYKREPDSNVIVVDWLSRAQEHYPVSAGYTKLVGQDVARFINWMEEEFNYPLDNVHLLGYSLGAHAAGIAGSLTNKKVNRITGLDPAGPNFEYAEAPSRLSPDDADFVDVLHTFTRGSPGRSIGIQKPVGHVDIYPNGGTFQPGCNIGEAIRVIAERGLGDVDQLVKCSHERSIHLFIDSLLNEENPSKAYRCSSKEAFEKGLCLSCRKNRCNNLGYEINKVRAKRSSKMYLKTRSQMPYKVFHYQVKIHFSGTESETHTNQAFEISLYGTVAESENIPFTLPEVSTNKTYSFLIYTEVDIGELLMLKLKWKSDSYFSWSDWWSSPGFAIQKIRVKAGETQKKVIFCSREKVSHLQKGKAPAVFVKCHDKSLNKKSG

Variants of: B1
Details: with lipl_human LPL
With MKALGAVLLALLLFGRPGRGQTQQEEEEEDEDHGPDDYDEEDEDEVEEEETNRLPGGRSRVLLRCYTCKSLPRDERCNLTQNCSHGQTCTTLIAHGNTESGLLTTHSTWCTDSCPPITKTVEGTQVTMTCCQSSLCNVPPWQSSRVQDPTGKGAGGPRGSSETVGAALLLNLLAGLGAMGARRP [Q115P] the “effect of a mutation on the interaction” value was “decreasing interaction”.
MKALGAVLLALLLFGRPGRGQTQQEEEEEDEDHGPDDYDEEDEDEVEEEETNRLPGGRSRVLLRYYTCKSLPRDERCNLTQNCSHGQTCTTLIAHGNTESGLLTTHSTWCTDSCQPITKTVEGTQVTMTCCQSSLCNVPPWQSSRVQDPTGKGAGGPRGSSETVGAALLLNLLAGLGAMGARRP [C65Y] was tested, and the “effect of a mutation on the interaction” value was “decreasing interaction”.

From IntAct's records for PubMed 20124439
